Test results taken from paper PMC5038921 (Journal of biomolecular screening, 2016).

What was measured:
[1] = target: T1, RMI core complex (RMI1 OB2 domain with RMI2) (Homo sapiens, UniProt Q96E14+Q9H9A7); assay: ITC; type: binding
T1 sequence (Q9H9A7 473-625 limits assumed): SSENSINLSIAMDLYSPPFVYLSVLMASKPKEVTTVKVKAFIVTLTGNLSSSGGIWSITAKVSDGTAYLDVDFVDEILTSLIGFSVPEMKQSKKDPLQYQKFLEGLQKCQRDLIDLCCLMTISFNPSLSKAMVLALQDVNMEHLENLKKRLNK
T1 sequence (Q96E14 1-147): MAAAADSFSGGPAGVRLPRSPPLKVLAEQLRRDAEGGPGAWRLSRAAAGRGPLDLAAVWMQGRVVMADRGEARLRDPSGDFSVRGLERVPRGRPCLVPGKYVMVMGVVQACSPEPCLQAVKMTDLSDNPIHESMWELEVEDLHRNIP

[2] = target: RMI core complex with a N-terminal 6X-His tagged RMI2 (UniProt Q96E14); assay: AlphaScreen or HTRF
[3] = target: RMI core complex (OB2 domain of RMI1 and the entirety of RMI2) (UniProt Q96E14); assay: fluorescence polarisation
F-MM2 MM2 (Homo sapiens) = F-MM2 MM2 (Homo sapiens) (UniProt Q8IYD8); assay: FP; details: cited from earlier work

Molecule: CCOC(=O)N1CCN(C(c2ccccn2)c2c(-c3ccccc3)n(O)c3ccccc23)CC1 (stereo not shown) [PIP-199]
- Kd [1]: 3400 ± 1000 nM

Molecule: MM2 peptide from FANCM (unlabeled)
- IC50 [2]: 180 nM
- IC50 [3]: 510 nM

Molecule: RMI core complex core complex (from UniProt Q9H9A7)
- Kd (F-MM2 MM2 (Homo sapiens)): < 5 nM
